Assay results taken from US20170081398A1.
Where “and” joins values, the source holds several entries; their conditions need not be identical. Identical values can stand only once.

Columns and labels:
[1] = molecular target: human angiopoietin-2 (human) (UniProt O15123); assay: HTRF; competition with huTie-2-Fc-APC for biotinylated hAng2
[2] = molecular target: human angiopoietin-1 (human) (UniProt Q15389); assay: HTRF; competition with huTie-2-Fc-APC for biotinylated hAng1
mouse Tie2 (mouse) = mouse Tie2 (mouse) (UniProt Q02858); assay: cell-based or functional assay
Chain of mouse Tie2 (mouse) (Q02858 23-1122): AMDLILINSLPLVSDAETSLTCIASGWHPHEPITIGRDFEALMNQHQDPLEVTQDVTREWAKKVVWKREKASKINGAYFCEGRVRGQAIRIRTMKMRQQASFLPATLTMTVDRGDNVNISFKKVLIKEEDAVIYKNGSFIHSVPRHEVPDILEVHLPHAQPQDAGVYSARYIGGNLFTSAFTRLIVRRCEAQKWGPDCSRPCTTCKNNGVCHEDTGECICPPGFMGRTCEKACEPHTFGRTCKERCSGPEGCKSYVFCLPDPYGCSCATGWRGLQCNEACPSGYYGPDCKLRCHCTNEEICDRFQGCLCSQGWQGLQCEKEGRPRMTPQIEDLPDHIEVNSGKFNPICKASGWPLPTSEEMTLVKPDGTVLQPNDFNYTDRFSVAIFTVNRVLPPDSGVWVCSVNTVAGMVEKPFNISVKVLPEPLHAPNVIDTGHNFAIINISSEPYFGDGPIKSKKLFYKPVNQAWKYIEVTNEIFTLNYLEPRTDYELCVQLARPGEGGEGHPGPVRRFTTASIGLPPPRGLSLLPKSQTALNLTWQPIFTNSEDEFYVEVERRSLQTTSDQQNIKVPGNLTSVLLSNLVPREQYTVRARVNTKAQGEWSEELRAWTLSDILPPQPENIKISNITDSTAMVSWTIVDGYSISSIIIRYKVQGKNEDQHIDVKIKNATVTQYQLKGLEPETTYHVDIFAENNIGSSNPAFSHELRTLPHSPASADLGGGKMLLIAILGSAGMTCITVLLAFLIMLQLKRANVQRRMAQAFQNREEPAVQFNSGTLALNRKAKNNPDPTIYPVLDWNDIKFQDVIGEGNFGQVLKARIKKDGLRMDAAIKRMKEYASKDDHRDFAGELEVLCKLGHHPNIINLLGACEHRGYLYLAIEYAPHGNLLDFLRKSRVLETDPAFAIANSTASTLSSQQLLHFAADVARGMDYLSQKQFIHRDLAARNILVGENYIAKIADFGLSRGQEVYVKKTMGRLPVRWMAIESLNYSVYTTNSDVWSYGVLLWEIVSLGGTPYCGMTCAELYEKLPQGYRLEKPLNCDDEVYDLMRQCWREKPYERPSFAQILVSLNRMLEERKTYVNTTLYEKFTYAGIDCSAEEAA

Chain of human angiopoietin-1 (human) (Q15389 20-498 limits assumed): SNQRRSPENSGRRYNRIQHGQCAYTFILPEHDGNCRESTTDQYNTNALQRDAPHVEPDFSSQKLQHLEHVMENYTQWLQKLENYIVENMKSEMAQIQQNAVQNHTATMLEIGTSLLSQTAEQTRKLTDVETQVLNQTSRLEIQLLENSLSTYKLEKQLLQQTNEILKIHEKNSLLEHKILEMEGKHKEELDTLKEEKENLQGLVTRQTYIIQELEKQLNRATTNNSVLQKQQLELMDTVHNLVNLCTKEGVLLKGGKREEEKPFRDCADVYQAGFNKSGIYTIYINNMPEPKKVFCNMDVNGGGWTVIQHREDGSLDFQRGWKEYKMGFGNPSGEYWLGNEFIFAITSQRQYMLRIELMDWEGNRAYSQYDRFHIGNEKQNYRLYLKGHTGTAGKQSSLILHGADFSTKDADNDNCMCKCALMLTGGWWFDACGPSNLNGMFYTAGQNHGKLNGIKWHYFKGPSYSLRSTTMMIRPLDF
Chain of human angiopoietin-2 (human) (O15123 19-496 limits assumed): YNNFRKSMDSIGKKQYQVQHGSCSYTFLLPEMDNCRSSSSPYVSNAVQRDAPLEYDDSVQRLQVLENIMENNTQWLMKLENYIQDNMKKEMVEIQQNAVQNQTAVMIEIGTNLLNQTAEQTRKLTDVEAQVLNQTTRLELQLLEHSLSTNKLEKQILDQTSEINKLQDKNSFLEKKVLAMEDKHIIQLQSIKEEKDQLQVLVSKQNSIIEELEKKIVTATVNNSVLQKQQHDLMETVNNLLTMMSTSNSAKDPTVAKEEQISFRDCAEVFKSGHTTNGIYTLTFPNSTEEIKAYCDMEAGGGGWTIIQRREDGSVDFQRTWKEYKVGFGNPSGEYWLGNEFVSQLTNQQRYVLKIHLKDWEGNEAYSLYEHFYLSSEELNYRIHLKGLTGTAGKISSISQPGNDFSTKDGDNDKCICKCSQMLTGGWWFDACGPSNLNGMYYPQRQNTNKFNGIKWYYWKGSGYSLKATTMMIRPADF

| IC90/IC50 [1] | IC90/IC50 [2] | Tie2 phosphorylation in mouse lung endothelium (immunoprecipitation-Western blot) (mouse Tie2 (mouse)) [fold] | Substance |
| --- | --- | --- | --- |
| 4.1 and 4.4 | 41 and 71 | – | AMG 386 (Fc fusion) |
| – | – | 5 | recombinant Ang1 (R&D Systems Inc.) (ligand) |
